Molecular target: microtubules (MTs) assembled from bovine brain tubulin (bovine) (UniProt Q6B856)
Assay: co-sedimentation

- Kd: 10.7 µM
Substance: human Profilin-1 (PFN1), wildtype (from UniProt P07737 1-140) (natural protein)

Reference: paper PMC5772683
